The source of these data is patent publication US9982287B2, “Enterokinase cleavable polypeptides” (Novo Nordisk A/S, priority 2013, dated 2018).

No end group written: not given here. *: point of attachment. Dnp = O=[N+]([O-])c1ccc(*)c([N+](=O)[O-])c1; 2Abz = Nc1ccccc1C(=O)O

Assay [1] deals with T1, Enterokinase bovine light chain variant (C112A, L134K, I135K) (Bos taurus, UniProt P98072, C912A/I935K/L934K).
T1 construct: the bovine light chain variant (C112A, L134K, I135K) as described in WO2013/092855A1; made in house
Description: EK-kinetics_2: initial rates of Enterokinase hydrolysis of full length GLP-1 with an N-terminal extension (UPLC). The format is biochemical. The conditions noted are these: Z1 = entire [Arg34]GLP-1(9-37), N-terminal extension Z2; slowest D4K site in this set = 100%; initial substrate 1 mg/ml, pH 8.5. As to the method:
Method: EK-kinetics_2 • EK-kinetics_2 was performed by calculating initial rates of hydrolysis of full length GLP-1 with an N-terminal extension. Substrate concentrations were in the range 150-300 μM. The hydrolysis reaction was started by adding an amount of enterokinase giving a final concentration of 9.5 nM. Samples were taken after 6.2 min, 18.7 min, 43.7 min, 86.3 min, 151.3 min, and 243.8 min and quenched by a 1+9 dilution into 5% acetic acid. A suitable method was used on a Waters iClass UPLC to separate and individually quantify remaining substrate and formed product on an analytical reversed-phase column by integrating peak areas. An equation of the following form was fitted to the raw data: […]
wherein t is time, cs0 is initial substrate concentration, cE is enzyme concentration, cPt is product concentration at time t, cSt is substrate concentration at time t, kcat and Km are hydrolysis parameters, and Ki is product inhibition constant. A constant Ki of 0.1 μM was used for all reactions. Initial hydrolysis rates were calculated based on the parameters determined for a initial substrate concentration of 1 mg/ml for all peptides. All reactions were performed in 50 mM Tris buffer, 1 mM EDTA, pH 8.5.
(§1) • The Enterokinase enzymes used for examples herein was the bovine light chain variant (C112A, L134K, I135K) as described in WO2013/092855A1.

Assay [2] deals with T1, Enterokinase bovine light chain variant (C112A, L134K, I135K). Description: EK-kinetics_1: initial rates of Enterokinase hydrolysis of intramolecularly quenched fluorogenic peptides. Type of assay: biochemical. The conditions noted are these: Z1 = HAEGT, X6 absent; for Activity (%): relative Enterokinase cleavage rate of reference substrates: reference EK-sites, normalised to substrate with D4K site = 100%. As to the method: These peptide substrates have the following general structure: Z2*-X6-X5-X4-GDR-Z1* Formula (II) • wherein • X6-X5-X4 have the same meaning as in formula (I) (each being an amino acid, however X6 being optional), • Z2 is Lys(Dnp) and • Z1* is Z1-Lys(Abz)amide, where Z1 is as defined in formula (I). • SPPS_I was performed on a Multipep RSi synthesizer from Intavis Bioanalytical Instruments AG (Koeln, Germany) at 3-μmol scale in parallel using 2.5 fold excess of Fmoc-amino acids (300 mM in NMP with 300 mM Oxyma Pure®) relative to resin loading e.g. Rinkamide-Chematrix (0.5 mmol/g). Fmoc-deprotection was performed using 20% piperidine in NMP. Coupling was performed using 1:1:1:1 amino acid/Oxyma Pure®/DIC/collidine in NMP. All amino acids were “double or triple coupled”, meaning that after the first coupling (60 min), the resin is drained and more reagents are added (amino acid, Oxyma Pure®, DIC, and collidine), and the mixture allowed to react again (60 min).
Method: EK-Kinetics_1 • EK-kinetics_1 was performed by measuring initial rates of hydrolysis of intramolecularly quenched fluorogenic peptides: Lys(Dnp)-peptide-Lys(Abz)amide according to formula (II). After measuring the background fluorescence of peptides, generally at a substrate concentration in the range of 1 to 50 μM, initial rates of hydrolysis was measured by addition of purified enterokinase enzyme at a concentration enabling reading the initial rate of hydrolysis, i.e. less than 5% hydrolysis in 30 min. Typically an enzyme concentration of 1 to 10 nM may be used. After up to one hour of hydrolysis additional enzyme was added to enable measurement of the fluorescence level at total hydrolysis. Hydrolysis rates were generally measured in 50 mM MOPS buffer, 1 mM EDTA, pH 7.5 at 25° C. using a Perkin Elmer Enspire fluorescence plate reader using 320 nm for excitation and 420 nm for emission.
as §1

T1 sequence (P98072 801-1035 C912A/L934K/I935K): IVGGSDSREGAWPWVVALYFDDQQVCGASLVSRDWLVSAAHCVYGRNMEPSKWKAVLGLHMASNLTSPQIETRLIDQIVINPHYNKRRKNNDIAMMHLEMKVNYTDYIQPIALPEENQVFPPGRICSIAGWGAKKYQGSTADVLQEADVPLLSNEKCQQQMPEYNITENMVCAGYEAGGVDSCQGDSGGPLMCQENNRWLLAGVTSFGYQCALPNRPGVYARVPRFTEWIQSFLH

For “DVKPGQPLYDEGDR-[Arg34]GLP-1(9-37) (DVKPGQPLYDEGDREGTFTSDVSSYLEGQAAKEFIAWLVRGRG; Enterokinase cleavable polypeptide) [Example 119]”, the “Activity (%): relative Enterokinase cleavage rate” value in assay [1] stood at 707%.

With “Lys(Dnp)-AEGDR-HAEGT-Lys(Abz)amide (K(Dnp)AEGDRHAEGTK(2Abz)-NH2; N-terminus assumed; SMILES C[C@H](NC(=O)[C@H](Cc1c[nH]cn1)NC(=O)[C@H](CCCNC(=N)N)NC(=O)[C@H](CC(=O)O)NC(=O)CNC(=O)[C@H](CCC(=O)O)NC(=O)[C@H](C)NC(=O)[C@@H](N)CCCCNc1ccc([N+](=O)[O-])cc1[N+](=O)[O-])C(=O)N[C@@H](CCC(=O)O)C(=O)NCC(=O)N[C@H](C(=O)N[C@@H](CCCCNC(=O)c1ccccc1N)C(N)=O)[C@@H](C)O) [Example 1]”, the “Activity (%): relative Enterokinase cleavage rate” value in assay [2] (initial rate normalised to substrate with D4K site = 100%) is on record as 382%.

“Lys(Dnp)-IMGDRHAEGT-Lys(Abz)amide (K(Dnp)IMGDRHAEGTK(2Abz)-NH2; N-terminus assumed; SMILES CC[C@H](C)[C@H](NC(=O)[C@@H](N)CCCCNc1ccc([N+](=O)[O-])cc1[N+](=O)[O-])C(=O)N[C@@H](CCSC)C(=O)NCC(=O)N[C@@H](CC(=O)O)C(=O)N[C@@H](CCCNC(=N)N)C(=O)N[C@@H](Cc1c[nH]cn1)C(=O)N[C@@H](C)C(=O)N[C@@H](CCC(=O)O)C(=O)NCC(=O)N[C@H](C(=O)N[C@@H](CCCCNC(=O)c1ccccc1N)C(N)=O)[C@@H](C)O) [Example 111]”: the “Activity (%): relative Enterokinase cleavage rate of reference substrates” value in assay [2] is 125%.

“Lys(Dnp)-INDDRHAEGT-Lys(Abz)amide (K(Dnp)INDDRHAEGTK(2Abz)-NH2; N-terminus assumed; SMILES CC[C@H](C)[C@H](NC(=O)[C@@H](N)CCCCNc1ccc([N+](=O)[O-])cc1[N+](=O)[O-])C(=O)N[C@@H](CC(N)=O)C(=O)N[C@@H](CC(=O)O)C(=O)N[C@@H](CC(=O)O)C(=O)N[C@@H](CCCNC(=N)N)C(=O)N[C@@H](Cc1c[nH]cn1)C(=O)N[C@@H](C)C(=O)N[C@@H](CCC(=O)O)C(=O)NCC(=O)N[C@H](C(=O)N[C@@H](CCCCNC(=O)c1ccccc1N)C(N)=O)[C@@H](C)O) [Example 112]”: in assay [2], the “Activity (%): relative Enterokinase cleavage rate of reference substrates” value came out at 126%.
